Patent publication US20130171155A1

Key:
Assay in all cases: cell-based or functional assay
[1] = biological target: baboon factor D (in baboon serum or plasma) (baboon)
[2] = biological target: dog factor D (in dog serum) (dog); details: scale: times less effective than on human factor D
[3] = biological target: human factor D purified from human serum (human) (UniProt P00746)
Chain of UniProt P00746 (P00746 26-253 N180D): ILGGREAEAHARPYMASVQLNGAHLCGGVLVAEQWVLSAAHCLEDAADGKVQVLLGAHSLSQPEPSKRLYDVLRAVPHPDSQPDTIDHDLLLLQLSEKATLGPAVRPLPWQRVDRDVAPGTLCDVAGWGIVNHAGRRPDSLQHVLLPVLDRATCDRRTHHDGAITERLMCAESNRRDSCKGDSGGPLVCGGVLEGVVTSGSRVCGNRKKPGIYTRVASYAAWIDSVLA

For MAb 166-32 (antibody), which inhibition of alternative complement hemolytic activity of baboon plasma, 18 hours after CPB [1] is on record?
Its inhibition of alternative complement hemolytic activity of baboon plasma, 18 hours after CPB is 79.3%.

What about the neutralization of dog factor D in hemolytic assays [2] of the same substance?
The neutralization of dog factor D in hemolytic assays was greater than 10.

And the alternative complement activity (hemolytic assay, unsensitized rabbit RBCs) in paired extracorporeal circuits [3]?
Its alternative complement activity (hemolytic assay, unsensitized rabbit RBCs) in paired extracorporeal circuits is 18 µg/mL.

What about the alternative pathway hemolytic activity of plasma from extracorporeal circuits (human whole blood) (molar ratio (MAb:factor D)) [3] of the same substance?
The alternative pathway hemolytic activity of plasma from extracorporeal circuits (human whole blood) (molar ratio (MAb:factor D)) was 1.5.

And the factor D dependent hemolysis of unsensitized rabbit RBCs (factor D depleted human serum with added factor D) [3]?
Its factor D dependent hemolysis of unsensitized rabbit RBCs (factor D depleted human serum with added factor D) is 0.3 µg/mL.
